Measured values published in US20180251562A1 (XOMA US, published 2018).
Numbering of substitutions follows the chain as printed. Where two headings read alike, the source gives them in different places.

B1: XPA.15.247.2.018 Fab (Fab, V domains shown)
VH: EVQLVETGGGVVQPGRSLRLSCAASGFTFSSYAMHWVRQAPGKGLEWVAVISYSGSNKYYADSVKGRFTISRDNSKNTLYLQMNSLRAEDTAVYYCARHEWGFGFDYWGQGTTVTVSS
VL: DVVMTQSPLSLPVTLGQPASISCRSSQSLVYGDGNTYLNWFQQRPGQSPRRLIYKVSNRDSGVPDRFSGSGSGTEFTLKISRVEAEDVGVYFCMQGTYWPGTFGGGTKLEIKR
notes: Monomeric Fab; also called XPA.247.2.018
B2: RHF.15.05896.075 (Fab, V domains shown)
VH: B1 VH with T28K, F105Y
VL: B1 VL
notes: Untagged Fab
B3: XPA.15.247.2.014 Fab (Fab, V domains shown)
VH: B1 VH
VL: B1 VL with N58K, E75D, F92Y, G101M
notes: Fab; also called XPA.15.247.014
B4: XPA.15.247.2.014 IgG (antibody, V domains shown)
VH: B1 VH
VL: B1 VL with N58K, E75D, F92Y, G101M
notes: Tested as IgG; also called XPA.15.247.014
B5: XPA.15.247 parent antibody (IgG) (antibody, V domains shown)
VH: B1 VH with S54D, F105M, Y107V
VL: DVVMTQSPLSLSVTLGQPASISCRSSLSLVYGDENTYLNWFQQRPGQSPRRLLYKVSDRDSGVPDRFSGSGSGTDFTLKISRVEADDVGVYYCMQGTHWPYTFGQGTKLEIKR
notes: Tested as IgG; also called XPA.15.247 antibody
B6: XPA.15.247.2.018 IgG (antibody, V domains shown)
VH: B1 VH
VL: B1 VL
notes: Tested as IgG; also called XPA.15.247.2.018 antibody
B7: XPA.15.247.2.011 IgG (antibody, V domains shown)
VH: B1 VH
VL: B5 VL with S12P, L27H, E34G, Q42H, L53I, D58N, S68A, V88F, Y91F
notes: Tested as IgG; also called XPA.15.247.011

Experiments:
[1] = target: T1, human insulin receptor (INSR) on CHOK1 cells (human, UniProt P06213 28-1382); experiment: cell-based or functional assay
[2] = target: T2, rat insulin receptor (INSR) on CHOK1 cells (rat, UniProt P15127 27-1383); experiment: cell-based or functional assay
[3] = target: T3, cynomolgus insulin receptor (INSR) on CHOK1 cells (cyno, UniProt A0A7N9D6H3 48-1390); experiment: cell-based or functional assay
[4] = target: T4, minipig insulin receptor (INSR) on CHOK1 cells (minipig, UniProt F1SCL0 28-758; F1SCL0 763-1382); experiment: cell-based or functional assay
[5] = target: T1, human insulin receptor (INSR) on CHOK1 …; experiment: cell-based or functional assay; remark: listed apart in the source
[6] = target: T1, human insulin receptor (INSR) on CHOK1 …; experiment: cell-based or functional assay; remark: listed apart in the source
[7] = target: T1, human insulin receptor (INSR) on CHOK1 …; experiment: flow cytometry on CHO cells expressing human INSR
[8] = target: T5, Recombinant human insulin receptor (B form) ECD (R&D Systems) (human, UniProt P06213 28-956, limits assumed); experiment: SPR (Biacore 2000), INSR-ECD immobilised, purified Fab injected, 1:1 fit
T5 construct: extracellular domain; also called INSR-ECD; h-INSR

[9] = target: T6, solubilized human INSR (B isoform) from CHO-hINSR-B cells, without insulin (human, UniProt P06213 28-1382); experiment: SPR (ProteOn XPR36), solubilized INSR-B captured by CT-3 mAb, Fab injected, -insulin
T6 construct: mature; Detergent-solubilized full-length receptor in cell lysate, captured on the SPR chip by its carboxy-terminal part; also called solubilized INSR

[10] = target: T2, rat insulin receptor (INSR) on CHOK1 …; experiment: flow cytometry on CHOK1 cells expressing the INSR ortholog; Fab, anti-human kappa FITC detection
[11] = target: T3, cynomolgus insulin receptor (INSR) on …; experiment: as above
[12] = target: T4, minipig insulin receptor (INSR) on …; experiment: as above
[13] = target: T1, human insulin receptor (INSR) on CHOK1 …; experiment: as above
[14] = target: T2, rat insulin receptor (INSR) on CHOK1 …; experiment: binding to CHO cells expressing rat INSR; 1st column headed CHO Rat INSR; quantity and unit not printed [cont'd]
[15] = target: T3, cynomolgus insulin receptor (INSR) on …; experiment: binding to CHO cells expressing cyno INSR; 1st column headed CHO Cyno INSR; quantity and unit not printed [cont'd]
[16] = target: T1, human insulin receptor (INSR) on CHOK1 …; experiment: binding to CHO cells expressing human INSR; 1st column headed CHO Human INSR; quantity and unit not printed [cont'd]
[17] = target: T1, human insulin receptor (INSR) on CHOK1 …; experiment: binding to CHO cells expressing human INSR; 2nd column headed CHO Human INSR; quantity and unit not printed [cont'd]
[18] = target: T3, cynomolgus insulin receptor (INSR) on …; experiment: binding to CHO cells expressing cyno INSR; 2nd column headed CHO Cyno INSR (same numbers as the 1st); quantity and unit not printed [cont'd]
[19] = target: T2, rat insulin receptor (INSR) on CHOK1 …; experiment: binding to CHO cells expressing rat INSR; 2nd column headed CHO Rat INSR (the 1st column's numbers with more digits); quantity and unit not printed [cont'd]
[20] = target: T5, Recombinant human insulin receptor (B …); experiment: SPR (Biacore 2000), INSR-ECD immobilised; relative to 247.2.018 Fab
[21] = target: T5, Recombinant human insulin receptor (B …); experiment: SPR (Biacore 2000), INSR-ECD immobilised, purified Fab injected, 1:1 fit [cont'd]
[22] = target: T2, rat insulin receptor (INSR) on CHOK1 …; experiment: flow cytometry on CHOK1 cells expressing the INSR ortholog; IgG, anti-human IgG APC detection
[23] = target: T3, cynomolgus insulin receptor (INSR) on …; experiment: as above
[24] = target: T4, minipig insulin receptor (INSR) on …; experiment: as above
[25] = target: T1, human insulin receptor (INSR) on CHOK1 …; experiment: as above
[26] = target: T6, solubilized human INSR (B isoform) from …; experiment: SPR (ProteOn XPR36), solubilized INSR captured by CT-3 mAb, antibody injected, no insulin
[27] = target: T1, human insulin receptor (INSR) on CHOK1 …; experiment: flow cytometry on CHO cells expressing human INSR; remark: listed apart in the source

Row | Binder | EC50 (nM), pAKT signaling assay [2] [nM] | EC50 (nM), pAKT signaling assay [3] [nM] | EC50 (nM), pAKT signaling assay [4] [nM] | EC50 (nM), pAKT signaling assay [5] [nM] | EC50 [22] [nM] | EC50 [23] [nM] | EC50 [24] [nM] | EC50 [25] [nM] | other results
1 | B1 | 4.2 | 2.8 | 2.5 | 3.3 |  |  |  |  | EC50, pAKT assay at the EC80 concentration of insulin [1]: 7.7 nM; Potency EC50 value [nM] [cont'd] [6]: 1.31 nM; EC50 (read off the curve) [7]: ~0.2 µg/mL; Kd [8]: 9.7 nM; Kd [9]: 6.9 nM; EC50 [10]: 1.9 nM; EC50 [11]: 21.9 nM; EC50 [12]: 2 nM; EC50 [13]: 1.6 nM; CHO Rat INSR [14]: 1.28; CHO Cyno INSR [15]: 2.62; CHO Human INSR [16]: 2.2; CHO Human INSR [17]: 1.63; CHO Cyno INSR [18]: 2.62; CHO Rat INSR [19]: 1.28
2 | B2 |  |  |  |  |  |  |  |  | Potency EC50 value [nM] [cont'd] [6]: 1.16 nM; Fold KD Improvement [20]: 7 fold; Kd [8]: 1.4 nM; koff [21]: 0.00045 s⁻¹; kon [21]: 320000 M⁻¹ s⁻¹; CHO Rat INSR [14]: 0.621; CHO Cyno INSR [15]: 0.728; CHO Human INSR [16]: 1.06; CHO Human INSR [17]: 0.791; CHO Cyno INSR [18]: 0.728; CHO Rat INSR [19]: 0.621
3 | B3 | ~15.6 | ~15.1 | 8.4 | 9.6 |  |  |  |  | Kd [9]: 3.7 nM; koff [9]: 0.000705 s⁻¹; kon [9]: 137000 M⁻¹ s⁻¹; EC50 [10]: 1.7 nM; EC50 [11]: 10.2 nM; EC50 [12]: 2.9 nM; EC50 [13]: 1.8 nM
4 | B4 | 4.2 | 1.7 | 2.3 | 2.1 | 0.7 | 1.1 | 0.9 | 0.7 | 
5 | B5 | 46.2 | 30.7 | 20.7 | 34.5 | 9.7 | 13.6 | 12 | 8.8 | EC50, pAKT assay at the EC80 concentration of insulin [1]: 34.7 nM; Kd [26]: 10 nM; koff [26]: 0.000471 s⁻¹; kon [26]: 38500 M⁻¹ s⁻¹
6 | B6 | 0.4 | 0.2 | 0.3 | 0.3 | 0.4 | 1.4 | 0.5 | 0.3 | EC50 (read off the curve) [27]: ~0.8 µg/mL; Kd [26]: 6.6 nM
7 | B7 | 3.1 | 1.3 | 1.7 | 1.5 | 1.3 | 3.3 | 1.5 | 1 | 
